Columns and labels:
NurA = molecular target: T1, NurA (Saccharolobus solfataricus, UniProt Q97WH1 1-339); experiment: EMSA; with SSB: NurA binding not significantly influenced; EMSA: 5 pmol fluorescent DNA in 10 ul, 20 mM HEPES/NaOH pH 7.5, 35 mM beta-mercaptoethanol, 500 mM NaCl, 50 mM MgCl2 (so in the source), 10 min room temperature, 5% PAGE in 0.5x TBE; conditions: protein: recombinant; chain copies: 2; single strand
T1 sequence: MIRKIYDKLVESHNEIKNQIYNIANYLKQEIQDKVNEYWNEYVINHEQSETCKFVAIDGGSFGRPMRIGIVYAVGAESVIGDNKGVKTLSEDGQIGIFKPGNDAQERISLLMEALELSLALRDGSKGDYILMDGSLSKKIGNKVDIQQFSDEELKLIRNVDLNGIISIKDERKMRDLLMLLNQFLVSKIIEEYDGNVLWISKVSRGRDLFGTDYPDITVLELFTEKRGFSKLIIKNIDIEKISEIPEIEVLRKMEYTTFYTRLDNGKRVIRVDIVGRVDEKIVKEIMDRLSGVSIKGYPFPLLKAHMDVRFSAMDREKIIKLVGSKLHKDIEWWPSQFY

HerA [1] = molecular target: T2, HerA (Saccharolobus solfataricus, UniProt Q97WG8 1-500); experiment: EMSA; HerA alone, increasing amounts; EMSA: 5 pmol fluorescent DNA in 10 ul, 20 mM HEPES/NaOH pH 7.5, 35 mM beta-mercaptoethanol, 500 mM NaCl, 50 mM MgCl2 (so in the source), 10 min room temperature, 5% PAGE in 0.5x TBE; conditions: protein: recombinant; chain copies: 6; single strand
T2 sequence: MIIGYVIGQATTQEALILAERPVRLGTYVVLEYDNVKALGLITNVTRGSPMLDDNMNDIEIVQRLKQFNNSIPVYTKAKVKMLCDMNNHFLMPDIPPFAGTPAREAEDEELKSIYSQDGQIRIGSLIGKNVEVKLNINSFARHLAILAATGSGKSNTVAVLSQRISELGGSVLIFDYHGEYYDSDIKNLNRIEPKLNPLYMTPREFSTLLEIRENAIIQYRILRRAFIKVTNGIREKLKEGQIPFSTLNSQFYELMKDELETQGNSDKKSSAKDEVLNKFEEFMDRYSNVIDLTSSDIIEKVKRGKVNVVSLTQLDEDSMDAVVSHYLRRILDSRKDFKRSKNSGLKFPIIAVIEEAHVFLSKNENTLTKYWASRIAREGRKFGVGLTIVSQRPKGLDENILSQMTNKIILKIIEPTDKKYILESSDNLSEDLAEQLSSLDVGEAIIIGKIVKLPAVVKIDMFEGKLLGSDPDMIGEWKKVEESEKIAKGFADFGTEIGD

SSB [2] = molecular target: T3, SSB (Saccharolobus solfataricus, UniProt Q97W73 1-148); experiment: EMSA; 2.5 pmol NurA/HerA, 1.5 pmol SSB, increasing ATP: no effect of ATP on stimulation; EMSA: 5 pmol fluorescent DNA in 10 ul, 20 mM HEPES/NaOH pH 7.5, 35 mM beta-mercaptoethanol, 500 mM NaCl, 50 mM MgCl2 (so in the source), 10 min room temperature, 5% PAGE in 0.5x TBE; conditions: protein: recombinant; chain copies: 2; single strand
T3 sequence: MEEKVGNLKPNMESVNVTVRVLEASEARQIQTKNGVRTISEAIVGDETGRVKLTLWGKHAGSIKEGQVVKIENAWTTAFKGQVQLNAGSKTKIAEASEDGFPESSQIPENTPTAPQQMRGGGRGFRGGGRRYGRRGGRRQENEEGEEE

SSB [3] = molecular target: T3, SSB; experiment: EMSA; with NurA/HerA: SSB binding strongly stimulated; EMSA: 5 pmol fluorescent DNA in 10 ul, 20 mM HEPES/NaOH pH 7.5, 35 mM beta-mercaptoethanol, 500 mM NaCl, 50 mM MgCl2 (so in the source), 10 min room temperature, 5% PAGE in 0.5x TBE; conditions: protein: recombinant
HerA [4] = molecular target: T2, HerA; experiment: EMSA; in NurA/HerA with SSB: HerA binding not reduced on fork; EMSA: 5 pmol fluorescent DNA in 10 ul, 20 mM HEPES/NaOH pH 7.5, 35 mM beta-mercaptoethanol, 500 mM NaCl, 50 mM MgCl2 (so in the source), 10 min room temperature, 5% PAGE in 0.5x TBE; conditions: protein: recombinant; chain copies: 6; fork 1:2; 50 bp duplex, unpaired 5' T20 of strand 1 and 3' 20 nt of strand 2

Binder: GTTTTCCCAGTCACGAC (ssDNA) [17 merTAMRA]
- binding result (NurA): binds
- binding result (HerA [1]): binds
- binding result (SSB [2]): binds

B1: 70 leadCy5 (70 mer) (ssDNA)
DNA: CGTGACTTGATGTTAACCCTAACCCTAAGAATTCGGCTTAAGTGAGTGTGAGGATATCATGTACGATAGC
- binding result (SSB [3]; chain copies: 2, single strand): binds

B2: Forked substrate (70 lagFork/70 leadCy5) (dsDNA)
DNA 1: TTTTTTTTTTTTTTTTTTTTCACACTCACTTAAGCCGAATTCTTAGGGTTAGGGTTAACATCAAGTCACG
DNA 2: CGTGACTTGATGTTAACCCTAACCCTAAGAATTCGGCTTAAGTGAGTGTGAGGATATCATGTACGATAGC
- binding result (SSB [3]; fork 1:2, 50 bp duplex, unpaired 5' T20 of strand 1 and 3' 20 nt of strand 2): binds
- binding result (HerA [4]): binds

Binder: GCCGTGATCACCAATGCAGATTGACGAACCTTTGCCCACGT (ssDNA) [40 merCy3]
- binding result (SSB [3]; chain copies: 2, single strand): binds

Binder: GCTATCGTACATGATATCCTC (ssDNA) [21 merTAMRA]
- binding result (SSB [3]; chain copies: 2, single strand): binds

From article PMC8910471, “The Finely Coordinated Action of SSB and NurA/HerA Complex Strictly Regulates the DNA End Resection Process in Saccharolobus solfataricus”
